Experiment [1] deals with recombinant TEM8 (AP-TEM8). Put plainly: ELISA-type titration of m825-MMAE on recombinant AP-TEM8; absorbance at 450 nm against Log (ng/well).
In experiment [2] the target is T1, recombinant human TEM8 ectodomain (human, UniProt Q9H6X2 33-321).
T1 construct: also called TEM8-ED; Tumor Endothelial Marker 8
T1 sequence: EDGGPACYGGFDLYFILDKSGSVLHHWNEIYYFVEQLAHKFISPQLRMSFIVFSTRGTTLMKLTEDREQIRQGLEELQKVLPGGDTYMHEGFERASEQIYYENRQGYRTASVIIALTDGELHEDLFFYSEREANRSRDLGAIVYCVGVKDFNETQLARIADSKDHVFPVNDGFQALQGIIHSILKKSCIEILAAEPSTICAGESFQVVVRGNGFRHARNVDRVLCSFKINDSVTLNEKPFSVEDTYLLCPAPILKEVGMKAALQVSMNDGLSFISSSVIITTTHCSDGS
Put plainly: SPR (Biacore), antibody in IgG1 format, recombinant human TEM8 ectodomain; apparent KD.

In experiment [3] the target is T2, human CMG2 (hCMG2) expressed on CHO or 293 cells (human, UniProt P58335 34-489).
T2 construct: whole, on cells; also called ANTXR2
Nature of the experiment: flow cytometry (FACS), CHO cells expressing hCMG2 against parental CHO.

The target of the next experiment is T3, 293 mCMG2 (mouse, UniProt Q6DFX2).
T3 construct: expressed on human embryonic kidney 293 cells; also called mouse CMG2; mouse ANTXR2 expressed on 293 cells
Put plainly: flow cytometry (FACS), 293 cells expressing mCMG2 against parental 293.

T2 sequence (P58335 34-489): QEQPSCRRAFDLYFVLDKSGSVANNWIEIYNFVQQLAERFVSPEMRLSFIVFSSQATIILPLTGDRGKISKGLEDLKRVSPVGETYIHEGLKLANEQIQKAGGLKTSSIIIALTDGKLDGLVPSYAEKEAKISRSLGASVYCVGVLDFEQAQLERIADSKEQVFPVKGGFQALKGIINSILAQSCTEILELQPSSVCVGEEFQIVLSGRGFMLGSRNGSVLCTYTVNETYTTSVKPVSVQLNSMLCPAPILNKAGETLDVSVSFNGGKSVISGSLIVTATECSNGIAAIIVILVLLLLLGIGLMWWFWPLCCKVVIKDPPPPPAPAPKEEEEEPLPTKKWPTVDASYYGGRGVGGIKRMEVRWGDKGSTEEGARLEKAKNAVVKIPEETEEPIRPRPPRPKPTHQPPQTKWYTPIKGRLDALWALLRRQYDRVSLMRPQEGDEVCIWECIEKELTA
T3 sequence (Q6DFX2 32-487 limits assumed): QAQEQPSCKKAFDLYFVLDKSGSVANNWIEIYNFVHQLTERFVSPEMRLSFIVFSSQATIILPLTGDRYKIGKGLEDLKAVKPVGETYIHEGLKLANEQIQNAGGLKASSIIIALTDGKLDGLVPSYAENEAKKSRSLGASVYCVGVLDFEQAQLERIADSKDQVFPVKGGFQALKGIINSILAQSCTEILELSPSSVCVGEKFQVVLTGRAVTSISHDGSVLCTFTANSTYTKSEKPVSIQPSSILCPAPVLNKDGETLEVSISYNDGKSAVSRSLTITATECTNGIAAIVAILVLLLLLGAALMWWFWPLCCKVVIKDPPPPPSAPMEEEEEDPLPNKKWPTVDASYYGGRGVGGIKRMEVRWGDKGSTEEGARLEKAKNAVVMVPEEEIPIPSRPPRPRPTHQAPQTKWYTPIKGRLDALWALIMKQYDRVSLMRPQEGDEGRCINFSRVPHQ

B1: m825-MMAE conjugate (m825 antibody in human IgG1 format conjugated to MMAE) (other)
VH: QVQLVQSGAEVKKPGTSVKVSCKVPGYTFSSYAISWVRQAPGQGLEWMGGIIPIFGTTNYAQKFQGRVTITGEESTSTVYMELSSLRSEDTAVYYCARDTDYMFDYWGQGTLVTVSS
VL: SSELTQDPVVSVALGETVSITCQGDNLRDFYASWYQQKPGQAPLLVMYGKNRRPSGIPDRFSGSTSGNTLSLTITGAQAEDEADYYCSSRDNSKHVVFGGGTKVTVL
modifications: MMAE with stretcher unit, Val-Cit peptide cleavage site and spacer, attached to thiol groups formed by partial reduction of inter-chain disulfide bonds (positions not stated)
notes: also called anti-TEM8-MMAE
As to B1, the “EC50 (read off the curve)” value in experiment [1] is approximately 0.5 ng/well.

B2: m825 antibody in human IgG1 format (antibody, V domains shown)
VH: QVQLVQSGAEVKKPGTSVKVSCKVPGYTFSSYAISWVRQAPGQGLEWMGGIIPIFGTTNYAQKFQGRVTITGEESTSTVYMELSSLRSEDTAVYYCARDTDYMFDYWGQGTLVTVSS
VL: SSELTQDPVVSVALGETVSITCQGDNLRDFYASWYQQKPGQAPLLVMYGKNRRPSGIPDRFSGSTSGNTLSLTITGAQAEDEADYYCSSRDNSKHVVFGGGTKVTVL
notes: also called m825 mAb; human m825-IgG1
In the case of B2, in experiment [2], the Kd was found to be 0.034 nM.

B3: m822 antibody in human IgG1 format (antibody, V domains shown)
VH: QVQLVQSGAEVKKPGASVKVSCKVSGYTFSSYAISWVRQAPGQGLEWMGGIIPIFGTANYAQKFQGRVTITADESTSTAYMELSSLRSEDTAVYYCARDTDYMFDYWGQGTLVTVSS
VL: SSELTQDPVVSVALGETVSITCQGDNLRDFYASWYQQKPGQAPLLVMYGKNRRPSGIPDRFSGSTSGNTLSLTITGAQAEDEADYYCSSRDNSKHVVFGGGTKVTVL
notes: also called m822 mAb
As to B3, the Kd in experiment [2] was 35 nM.

B4: m830 antibody in human IgG1 format (antibody, V domains shown)
VH: EVQLVESGGGVVQPGRSVRLSCAASGFTFSTYTMHWVRQAPGKGLEWVAIISNDGSNKYYADPVRGRFTISRDNSKNTLYLQMNSLRAEDTAVYYCVRGSSWYRGNWFDPWGQGTLVTVSS
VL: DIQMTQSPSSLSASVGDRVTIACRASQTISRYLNWYQQKPGKAPKLLIYAASSLQSGVSSRFSGSGSGTEFTLTISSLQPEDFATYFCQQTYSPPITFGQGTRLEIKR
notes: also called m830 mAb; human m830-IgG1
In the case of B4, the binding result (in experiment [3]; with 293 mCMG2) was “no binding” in each case. Besides, the Kd in experiment [2] was determined as 12 nM.

B5: m863 antibody in human IgG1 format (antibody, V domains shown)
VH: EVQLVETGAEVKKPGASVKVSCKASGYTFTGYYMHWVRQAPGQGLEWMGWINPTSGSTNYAQKFQGRVTMTRDTSISTAYMELSGLRSDDTAVYYCVRDPGSPKWLAFDPWGQGTLVTVSS
VL: DIQLTQSPSSLSASVGDRVTITCRASRAISRYLNWYQQKPGKAPKLLIYAASSLQSGVSSRFSGSGSGTEFTLTISSLQPEDFATYFCQQTYSPPITFGQGTRLEIKR
notes: also called m863 mAb
For the molecule B5, the binding result (in experiment [3]; in the experiment with 293 mCMG2) was “no binding” throughout. Also, the Kd in experiment [2] was 1.2 nM.

The values above are taken from patent US20160264662A1 (US Dept. of Health and Human Services, published 2016).
